According to paper doi:10.1101/2024.06.27.600884:

Legend:
Experiment in all cases: EMSA
[1] = target: TRF2ΔB (UniProt Q15554 87-542)
[2] = target: TRF2ΔB-F59A (UniProt Q15554 87-542, F101A)
[3] = target: Myc-TRF2ΔBΔTRFH (RRL) (UniProt Q15554 288-542)
[4] = target: TRF2ΔBΔHinge (UniProt Q15554 87-287+484-542, internal_change)
[5] = target: Myc-TRF2ΔBΔHinge (RRL) (UniProt Q15554 87-287+484-542, internal_change)
[6] = target: Myc-TRF2ΔB (RRL) (UniProt Q15554 87-542)
[7] = target: TRF2ΔBΔTRFH (UniProt Q15554 288-542)

Measured: binding result

B1: 4-repeat telomeric probe (dsDNA)
DNA 1: GTACCCGGGGATCGTCGACTCTAGAGGGGCCCTAACCCTAACCCTAACCCTAACCCGGGCTCGAATTCGATCCTCTAGAGTCGACCTGCAGGCATGCAAGCU
DNA 2: AGCTTGCATGCCTGCAGGTCGACTCTAGAGGATCGAATTCGAGCCCGGGTTAGGGTTAGGGTTAGGGTTAGGGCCCCTCTAGAGTCGACGATCCCCGGGUAC
modifications: Cy5.5-dUTP incorporated by Klenow fill-in (U near both 3' ends)
binds: all assays above
